From patent publication US7041441 (US Dept. of Health and Human Services, dated 2006)

T1: gp23* (major capsid protein of bacteriophage T4, cleaved mature form, in the expanded surface lattice) (bacteriophage T4, UniProt P04535 66-521)
T1 construct: mature; also called surface lattice protein; cleaved/expanded polyheads
T1 sequence: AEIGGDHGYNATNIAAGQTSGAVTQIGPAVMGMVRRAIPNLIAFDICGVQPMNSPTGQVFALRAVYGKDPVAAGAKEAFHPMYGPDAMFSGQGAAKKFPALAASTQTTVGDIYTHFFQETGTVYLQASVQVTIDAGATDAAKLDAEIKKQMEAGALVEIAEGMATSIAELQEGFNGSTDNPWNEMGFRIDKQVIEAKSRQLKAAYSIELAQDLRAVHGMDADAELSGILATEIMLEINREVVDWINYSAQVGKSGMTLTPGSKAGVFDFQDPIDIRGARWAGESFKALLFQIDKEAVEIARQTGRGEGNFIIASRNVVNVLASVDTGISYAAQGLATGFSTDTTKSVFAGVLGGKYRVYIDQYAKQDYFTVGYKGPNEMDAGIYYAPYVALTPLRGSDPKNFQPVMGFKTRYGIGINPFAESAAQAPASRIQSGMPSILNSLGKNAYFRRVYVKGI


Target: T1, gp23* (major capsid protein of …)
Test: co-pelleting with cleaved/expanded polyheads, quantitation of SDS-PAGE bands

Binder	molar ratio of SOC:gp23* [mol/mol]	molar ratio of SOC-V3:gp23* [mol/mol]
SOC (small outer capsid) protein of bacteriophage T4, wild type (other, mature) MASTRGYVNIKTFEQKLDGNKKIEGKEISVAFPLYSDVHKISGAHYQTFPSEKAAYSTVYEENQRTEWIAANEDLWKVTG	1.2	
SOC-V3 fusion protein (SOC, Cys-Leu-Asn-Ser, 43-residue V3 loop domain of HIV-1 gp120) (other, mature;domain: V3 loop; also called SOV-V3) MASTRGYVNIKTFEQKLDGNKKIEGKEISVAFPLYSDVHKISGAHYQTFPSEKAAYSTVYEENQRTEWIAANEDLWKVTGCLNSSVEINCTRPNNNTRKRIRIQRGPGRAFVTIGKIGNMRQAHCNI		1.8
